B1: rAAV-6 (recombinant adeno-associated virus vector with AAV-6 capsid) (other)
chain: MAADGYLPDWLEDNLSEGIREWWDLKPGAPKPKANQQKQDDGRGLVLPGYKYLGPFNGLDKGEPVNAADAAALEHDKAYDQQLKAGDNPYLRYNHADAEFQERLQEDTSFGGNLGRAVFQAKKRVLEPFGLVEEGAKTAPGKKRPVEQSPQEPDSSSGIGKTGQQPAKKRLNFGQTGDSESVPDPQPLGEPPATPAAVGPTTMASGGGAPMADNNEGADGVGNASGNWHCDSTWLGDRVITTSTRTWALPTYNNHLYKQISSASTGASNDNHYFGYSTPWGYFDFNRFHCHFSPRDWQRLINNNWGFRPKRLNFKLFNIQVKEVTTNDGVTTIANNLTSTVQVFSDSEYQLPYVLGSAHQGCLPPFPADVFMIPQYGYLTLNNGSQAVGRSSFYCLEYFPSQMLRTGNNFTFSYTFEDVPFHSSYAHSQSLDRLMNPLIDQYLYYLNRTQNQSGSAQNKDLLFSRGSPAGMSVQPKNWLPGPCYRQQRVSKTKTDNNNSNFTWTGASKYNLNGRESIINPGTAMASHKDDKDKFFPMSGVMIFGKESAGASNTALDNVMITDEEEIKATNPVATERFGTVAVNLQSSSTDPATGDVHVMGALPGMVWQDRDVYLQGPIWAKIPHTDGHFHPSPLMGGFGLKHPPPQILIKNTPVPANPPAEFSATKFASFITQYSTGQVSVEIEWELQKENSKRWNPEVQYTSNYAKSANVDFTVDNNGLYTEPRPIGTRYLTRPL
B2: human galectin 3 binding protein (G3BP), native protein of human serum (other)
chain: VNDGDMRLADGGATNQGRVEIFYRGQWGTVCDNLWDLTDASVVCRALGFENATQALGRAAFGQGSGPIMLDEVQCTGTEASLADCKSLGWLKSNCRHERDAGVVCTNETRSTHTLDLSRELSEALGQIFDSQRGCDLSISVNVQGEDALGFCGHTVILTANLEAQALWKEPGSNVTMSVDAECVPMVRDLLRYFYSRRIDITLSSVKCFHKLASAYGARQLQGYCASLFAILLPQDPSFQMPLDLYAYAVATGDALLEKLCLQFLAWNFEALTQAEAWPSVPTDLLQLLLPRSDLAVPSELALLKAVDTWSWGERASHEEVEGLVEKIRFPMMLPEELFELQFNLSLYWSHEALFQKKTLQALEFHTVPFQLLARYKGLNLTEDTYKPRIYTSPTWSAFVTDSSWSARKSQLVYQSRRGPLVKYSSDYFQAPSDYRYYPYQSFQTPQHPSFLFQDKRVSWSLVYLPTIQSCWNYGFSCSSDELPVLGLTKSGGSDRTIAYENKALMLCEGLFVADVTDFEGWKAAIPSALDTNSSKSTSSFPCPAGHFNGFRTVIRPFYLTNSSGVD
notes: also called hu-G3BP; huG3BP

How the values were obtained:
[1] = biological target: B2; experiment: surface plasmon resonance imagery, rAAV immobilised on glass prism, hu-G3BP injected
[2] = biological target: T1, human C-reactive protein (CRP), native protein of human serum (human, UniProt P02741 19-224); experiment: rAAV-6 immobilised on AVB-Sepharose incubated with human serum; PAGE and Western blot with human CRP specific antibodies
T1 construct: mature; also called human CRP; human homolog of CRP
T1 sequence: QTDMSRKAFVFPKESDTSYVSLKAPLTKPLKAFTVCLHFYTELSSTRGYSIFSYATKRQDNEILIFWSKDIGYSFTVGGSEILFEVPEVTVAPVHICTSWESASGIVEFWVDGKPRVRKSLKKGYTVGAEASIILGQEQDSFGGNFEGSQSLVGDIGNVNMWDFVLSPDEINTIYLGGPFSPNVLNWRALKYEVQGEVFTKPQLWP

[3] = biological target: T2, murine G3BP (mouse cyclophilin C-associated protein), native protein of mouse serum (mouse, UniProt Q07797 19-577); experiment: AAV6 incubated with seronegative murine serum, ultracentrifugation, 2D gel
T2 construct: also called G3BP murine protein homolog; CyCAP
T2 sequence: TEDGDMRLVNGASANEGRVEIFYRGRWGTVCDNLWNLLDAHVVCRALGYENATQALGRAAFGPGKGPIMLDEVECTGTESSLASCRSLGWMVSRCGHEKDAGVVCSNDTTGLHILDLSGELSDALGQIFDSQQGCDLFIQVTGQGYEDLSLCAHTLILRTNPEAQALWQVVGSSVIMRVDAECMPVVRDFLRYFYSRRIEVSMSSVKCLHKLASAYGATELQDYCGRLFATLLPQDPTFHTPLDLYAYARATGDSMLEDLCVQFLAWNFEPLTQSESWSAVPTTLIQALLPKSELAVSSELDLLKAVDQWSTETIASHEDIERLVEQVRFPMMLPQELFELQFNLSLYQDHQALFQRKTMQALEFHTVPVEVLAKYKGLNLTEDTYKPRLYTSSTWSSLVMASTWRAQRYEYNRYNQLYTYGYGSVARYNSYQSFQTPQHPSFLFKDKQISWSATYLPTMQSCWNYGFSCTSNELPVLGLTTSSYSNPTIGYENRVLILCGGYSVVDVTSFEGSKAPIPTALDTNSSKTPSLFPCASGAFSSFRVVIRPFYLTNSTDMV

[4] = biological target: rAAV-2 (recombinant adeno-associated virus vector with AAV-2 capsid) (adeno-associated virus serotype 2, UniProt P03135 1-735); experiment: rAAV immobilised on AVB-Sepharose beads incubated with seronegative human serum; Western blot for G3BP
rAAV-2 (recombinant adeno-associated virus vector with AAV-2 capsid), sequence (P03135 whole entry): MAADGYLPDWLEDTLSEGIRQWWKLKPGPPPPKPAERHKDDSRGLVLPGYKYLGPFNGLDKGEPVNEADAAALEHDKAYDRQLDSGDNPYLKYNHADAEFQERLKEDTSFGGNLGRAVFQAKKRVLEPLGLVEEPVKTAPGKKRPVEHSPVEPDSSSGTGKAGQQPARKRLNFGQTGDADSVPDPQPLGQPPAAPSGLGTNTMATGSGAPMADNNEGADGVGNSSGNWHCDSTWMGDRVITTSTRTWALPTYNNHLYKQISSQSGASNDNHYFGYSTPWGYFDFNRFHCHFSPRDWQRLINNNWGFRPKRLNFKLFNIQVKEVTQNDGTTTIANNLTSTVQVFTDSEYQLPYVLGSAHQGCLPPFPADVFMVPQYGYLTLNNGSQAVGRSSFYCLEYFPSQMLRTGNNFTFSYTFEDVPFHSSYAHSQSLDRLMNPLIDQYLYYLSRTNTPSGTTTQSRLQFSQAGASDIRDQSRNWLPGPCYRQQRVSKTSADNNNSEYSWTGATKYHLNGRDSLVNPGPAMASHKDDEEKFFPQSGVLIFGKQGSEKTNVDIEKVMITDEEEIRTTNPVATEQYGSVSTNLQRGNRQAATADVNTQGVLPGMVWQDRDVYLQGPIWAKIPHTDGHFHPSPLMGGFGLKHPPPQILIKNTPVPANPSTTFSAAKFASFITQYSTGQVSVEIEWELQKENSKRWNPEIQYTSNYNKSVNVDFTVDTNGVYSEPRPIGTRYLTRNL

Binder	Ka [1]	binding result [2]	binding result [3]	binding result [4]
B1	~1e+09 M⁻¹	no binding	no binding	–
B2	–	–	–	no binding

— US20130189225A1 (ASSOCIATION INSTITUT DE MYOLOGIE, published 2013)
